Measurements published in US20240034757A1 (OXFORD UNIVERSITY INNOVATION, published 2024).

T1: CCL17_HUMAN (human, UniProt Q92583 24-94)
T1 sequence: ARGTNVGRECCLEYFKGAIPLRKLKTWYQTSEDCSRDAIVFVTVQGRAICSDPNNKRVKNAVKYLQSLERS

T2: CCL27_HUMAN (human, UniProt Q9Y4X3 25-112)
T2 sequence: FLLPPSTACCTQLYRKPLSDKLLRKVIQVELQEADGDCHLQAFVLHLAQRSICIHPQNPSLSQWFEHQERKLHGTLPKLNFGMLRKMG

T3: CCL18_HUMAN (human, UniProt P55774 21-89)
T3 sequence: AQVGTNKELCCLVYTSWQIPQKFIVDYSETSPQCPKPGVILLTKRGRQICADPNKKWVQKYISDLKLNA

T4: CCL15_HUMAN (human, UniProt Q16663 22-113)
T4 sequence: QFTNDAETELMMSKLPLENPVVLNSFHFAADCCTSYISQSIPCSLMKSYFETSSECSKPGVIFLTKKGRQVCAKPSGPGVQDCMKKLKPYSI

T5: CCL23_HUMAN (human, UniProt P55773 22-120)
T5 sequence: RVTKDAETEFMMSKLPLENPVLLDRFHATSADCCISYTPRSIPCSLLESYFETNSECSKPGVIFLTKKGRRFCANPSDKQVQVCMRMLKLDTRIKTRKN

T6: CCL4L1_HUMAN (human, UniProt Q8NHW4 24-92)
T6 sequence: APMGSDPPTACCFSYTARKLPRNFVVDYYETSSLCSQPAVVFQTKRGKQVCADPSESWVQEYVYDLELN

T7: CCL19_HUMAN (human, UniProt Q99731 22-98)
T7 sequence: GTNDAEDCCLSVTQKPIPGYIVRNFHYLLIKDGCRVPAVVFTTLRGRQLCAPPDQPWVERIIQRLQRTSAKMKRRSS

T8: CCL24_HUMAN (human, UniProt O00175 27-104)
T8 sequence: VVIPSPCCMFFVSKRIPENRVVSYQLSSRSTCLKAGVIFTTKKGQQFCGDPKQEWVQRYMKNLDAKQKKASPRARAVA

T9: CCL4_HUMAN (human, UniProt P13236 24-92)
T9 sequence: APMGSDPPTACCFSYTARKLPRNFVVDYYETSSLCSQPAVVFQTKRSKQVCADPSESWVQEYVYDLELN

T10: CCL14_HUMAN (human, UniProt Q16627 22-93)
T10 sequence: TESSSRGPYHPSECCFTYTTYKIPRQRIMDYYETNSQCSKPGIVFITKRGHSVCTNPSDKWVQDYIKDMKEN

T11: CCL1_HUMAN (human, UniProt P22362 24-96)
T11 sequence: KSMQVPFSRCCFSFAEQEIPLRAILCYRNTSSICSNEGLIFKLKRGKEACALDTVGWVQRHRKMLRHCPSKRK

T12: CCL3L1_HUMAN (human, UniProt P16619 24-93)
T12 sequence: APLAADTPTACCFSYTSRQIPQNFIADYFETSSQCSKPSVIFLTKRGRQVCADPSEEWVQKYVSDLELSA

T13: CCL8_HUMAN (human, UniProt P80075 24-99)
T13 sequence (looked up): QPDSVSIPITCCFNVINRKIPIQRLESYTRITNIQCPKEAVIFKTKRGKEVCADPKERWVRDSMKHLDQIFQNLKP

T14: CCL22_HUMAN (human, UniProt O00626 25-93)
T14 sequence: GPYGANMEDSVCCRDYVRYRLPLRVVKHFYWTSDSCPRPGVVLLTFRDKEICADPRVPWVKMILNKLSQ

T15: CCL5_HUMAN (human, UniProt P13501 24-91)
T15 sequence: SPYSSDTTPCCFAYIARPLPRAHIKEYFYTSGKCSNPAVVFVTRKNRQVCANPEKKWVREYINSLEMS

T16: CCL16_HUMAN (human, UniProt O15467 24-120)
T16 sequence: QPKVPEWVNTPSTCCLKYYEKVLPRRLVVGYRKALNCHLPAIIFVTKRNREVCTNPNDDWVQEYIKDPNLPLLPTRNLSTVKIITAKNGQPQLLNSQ


Columns and labels:
Experiment in all cases: BLI
CCL11_HUMAN = CCL11_HUMAN (human, UniProt P51671 24-97)
Sequence of CCL11_HUMAN (P51671 24-97 limits assumed): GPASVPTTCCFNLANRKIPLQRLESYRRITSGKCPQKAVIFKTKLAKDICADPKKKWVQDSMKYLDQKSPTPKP

CCL17_HUMAN = target: T1, CCL17_HUMAN
CCL27_HUMAN = target: T2, CCL27_HUMAN
CCL18_HUMAN = target: T3, CCL18_HUMAN
CCL15_HUMAN = target: T4, CCL15_HUMAN
CCL23_HUMAN = target: T5, CCL23_HUMAN
CCL4L1_HUMAN = target: T6, CCL4L1_HUMAN
CCL19_HUMAN = target: T7, CCL19_HUMAN
CCL24_HUMAN = target: T8, CCL24_HUMAN
CCL4_HUMAN = target: T9, CCL4_HUMAN
CCL14_HUMAN = target: T10, CCL14_HUMAN
CCL1_HUMAN = target: T11, CCL1_HUMAN
CCL7_HUMAN = CCL7_HUMAN (human, UniProt P80098 24-99)
Sequence of CCL7_HUMAN (P80098 24-99 limits assumed): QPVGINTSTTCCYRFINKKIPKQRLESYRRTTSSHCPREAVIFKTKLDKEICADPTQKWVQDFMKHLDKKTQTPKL

CCL3L1_HUMAN = target: T12, CCL3L1_HUMAN
CCL8_HUMAN = target: T13, CCL8_HUMAN
CCL22_HUMAN = target: T14, CCL22_HUMAN
CCL5_HUMAN = target: T15, CCL5_HUMAN
CCL20_HUMAN = CCL20_HUMAN (human, UniProt P78556 27-96)
Sequence of CCL20_HUMAN (P78556 27-96 limits assumed): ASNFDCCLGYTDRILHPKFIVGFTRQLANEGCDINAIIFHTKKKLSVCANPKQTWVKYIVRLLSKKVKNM

CCL16_HUMAN = target: T16, CCL16_HUMAN
CCL13_HUMAN = CCL13_HUMAN (human, UniProt Q99616 24-98)
Sequence of CCL13_HUMAN (Q99616 24-98 limits assumed): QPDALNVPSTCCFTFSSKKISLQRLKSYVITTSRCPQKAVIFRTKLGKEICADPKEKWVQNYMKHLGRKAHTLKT
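Also: biolayer interferometry of evasin binding to chemokines, poorly fitted curves (R² under 0.9) discarded, every experiment run three or more times.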

Binder	Kd (CCL11_HUMAN)	RT (CCL11_HUMAN)	Kd (CCL17_HUMAN)	RT (CCL17_HUMAN)	Kd (CCL27_HUMAN)	RT (CCL27_HUMAN)	Kd (CCL18_HUMAN)	RT (CCL18_HUMAN)	Kd (CCL15_HUMAN)	RT (CCL15_HUMAN)	Kd (CCL23_HUMAN)	RT (CCL23_HUMAN)	Kd (CCL4L1_HUMAN)	RT (CCL4L1_HUMAN)	binding result (CCL19_HUMAN)	Kd (CCL24_HUMAN)	RT (CCL24_HUMAN)	Kd (CCL4_HUMAN)	RT (CCL4_HUMAN)	Kd (CCL14_HUMAN)	also measured
P991:G4S:P1156 (designed binder) ENGEGTTQPDYDNSTDYYNYEDFKCTCPAPHLNNTNGTVMKPIGCYYTCNVTRCTAPDTYPCYNLTEHQAKNLTTSPTTLCAVGNCDHGICVPNGTKELCFKAPNLEEGGGGSADDDNELFTVQYCGMNCTKDEGGTWTGCTGKKEGCKCYHESGKNYGLCLSTEYTDFSQYGNPSDSEIEAAKPKRSDTLSH	1.39 nM	30.6 min	5.8 nM	11.6 min	42.6 nM	2.91 min	0.143 nM	293 min	127 nM	0.87 min	5.13 nM	35.2 min	1.24 nM	38.3 min	no binding	3.18 nM	8.52 min	3.54 nM	28.1 min	0.835 nM	RT (CCL14_HUMAN): 135 min; Kd (CCL1_HUMAN): 7.66 nM; RT (CCL1_HUMAN): 4.13 min; Kd (CCL7_HUMAN): 0.287 nM; RT (CCL7_HUMAN): 375 min; Kd (CCL3L1_HUMAN): 2.91 nM; RT (CCL3L1_HUMAN): 43.8 min; Kd (CCL8_HUMAN): 7.89 nM; RT (CCL8_HUMAN): 16.6 min; Kd (CCL22_HUMAN): 2.36 nM; RT (CCL22_HUMAN): 15.6 min; Kd (CCL5_HUMAN): 0.947 nM; RT (CCL5_HUMAN): 92 min; binding result (CCL20_HUMAN): no binding; Kd (CCL16_HUMAN): 0.636 nM; RT (CCL16_HUMAN): 72.4 min; Kd (CCL13_HUMAN): 0.176 nM; RT (CCL13_HUMAN): 276 min
P1156:G4S:P991 (designed binder, also called two-warhead evasin) ADDDNELFTVQYCGMNCTKDEGGTWTGCTGKKEGCKCYHESGKNYGLCLSTEYTDFSQYGNPSDSEIEAAKPKRSDTLSHGGGGSENGEGTTQPDYDNSTDYYNYEDFKCTCPAPHLNNTNGTVMKPIGCYYTCNVTRCTAPDTYPCYNLTEHQAKNLTTSPTTLCAVGNCDHGICVPNGTKELCFKAPNLEE	1.54 nM	24.8 min	7.44 nM	8.6 min	36.2 nM	3.4 min	0.201 nM	182 min	166 nM	0.66 min	7 nM	28.5 min	1.28 nM	33.8 min	no binding	3.58 nM	6.75 min	3.55 nM	26.6 min	0.664 nM	RT (CCL14_HUMAN): 159 min; Kd (CCL1_HUMAN): 16.6 nM; RT (CCL1_HUMAN): 2.01 min; Kd (CCL7_HUMAN): 0.435 nM; RT (CCL7_HUMAN): 231 min; Kd (CCL3L1_HUMAN): 3.09 nM; RT (CCL3L1_HUMAN): 34.7 min; Kd (CCL8_HUMAN): 7.45 nM; RT (CCL8_HUMAN): 15.3 min; Kd (CCL22_HUMAN): 2.18 nM; RT (CCL22_HUMAN): 15.8 min; Kd (CCL5_HUMAN): 0.754 nM; RT (CCL5_HUMAN): 103 min; binding result (CCL20_HUMAN): no binding; Kd (CCL16_HUMAN): 0.503 nM; RT (CCL16_HUMAN): 92.5 min; Kd (CCL13_HUMAN): 0.207 nM; RT (CCL13_HUMAN): 221 min
